Laboratory results from the supplement of paper PMC12042874.
± gives the uncertainty stated by the source.

Test: amyloid nucleation score (Sup35N fusion, yeast selection) (log enrichment); library NNK1; higher = more nucleation; inactive = no reads after selection
How it was run: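 Output and input plasmid inserts were sequenced by Illumina after psi-negative yeast carrying Sup35N fused to peptides of 20 random codons had been induced 24 hours with 100 μM copper sulfate and grown 7 days at 30°C on medium lacking adenine and uracil. The nucleation score is the DiMSum log enrichment of output over input reads, centred on the mode score of non-aggregating sequences. Sequences with under 100 input reads were excluded.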

Substance	amyloid nucleation score
QGLAGHLSRRYFY	-1.96 ± 2.1
QHTTVRFRTGDKRNQFLSSI	-0.843 ± 1.1
QISRCILNNPRPCLSF	1.01 ± 0.9
QISRLKHYQTHVRMLLTLEG	-0.068 ± 0.42
QIWTFRGRVLVGHTSREVVG	0.122 ± 0.24
QKPTMFGA	-0.338 ± 0.28
QKRRKLARLASRYFPS	0.325 ± 0.57
QKWNMFVSSWVYDRRRTRGC	0.301 ± 1.1
QLLAVMWKGHHVYRELCGRL	-0.549 ± 0.46
QLRNLFHFYTGITDSRFLLH	1.93 ± 0.52
QLSFCYHLCWVICEGMVLEV	-0.245 ± 0.42
QLSTISFLQWSGSACSSTVH	-0.49 ± 0.74
QMIMAMNSFLISYLNHMWPG	2.13 ± 0.1
QMLQVPYQSFVALGVAWVRT	0.646 ± 0.66
QNRSHKPEFGRMPASQPVTN	0.447 ± 0.63
QNTSEYSLRRERSR	-0.341 ± 0.5
QNVRSLVHSYLKGTNSSLVG	-0.01 ± 0.74
QPLSLCLVFDCTNISFSFQA	8.594 ± 0.045
QPPKHMTMYVYVDTHEAVLS	-0.133 ± 0.38
QQGPFVCWIQR	-0.583 ± 1.1
QQLALPPWSCLWQ	0.095 ± 0.49
QQSFVTSLVMYVDRYRFVQV	0.809 ± 0.85

Substance	amyloid nucleation score
QRGAVVQDLAM	0.728 ± 0.71
QRILTSYGRDMLTSLLRSMP	1.01 ± 0.58
QRLLTYPLLYVTSNVLRFYR	-0.001 ± 0.7
QRSLMDAPMGKPRESNLLLV	1.1 ± 0.57
QRSNRGLPYKSRDGI	0.153 ± 0.39
QSFSKKEESYILYITRVHEP	0.88 ± 0.69
QSFSSSMHHDHDNWDQCCES	0.522 ± 0.59
QTDLLYSIYRSKDNSGLNLV	0.75 ± 0.56
QTHEYGLPRMIR	0.884 ± 0.69
QTLDRNNARSSDNGCSVGGA	-0.476 ± 1.9
QTMVTLGSKLIYDESGIVMV	inactive
QVLSHSKHNIVLDYHLETCG	1.84 ± 0.38
QVRCAFVIRRSV	0.143 ± 0.64
QVRGTEVPVSIAVGLGTSRL	1.05 ± 0.66
QVRSSDSGLVNHFVNE	inactive
QVTRDGSYVGCGGGRRREMC	-0.359 ± 1.9
QVVPC	-0.153 ± 0.66
QWRSFYTAWVAYRDECPGGF	2.44 ± 0.15
QWVSMTEVYFVVNKRWMCSR	-1.39 ± 1.6
QYFKNDVKYVPFG	-0.514 ± 1.1
QYMLFMYLGVVLKCH	0.644 ± 0.59
QYRGDIYKISG	1.29 ± 0.56

Substance	amyloid nucleation score
QYRRVSILSSVLLYCPNYCQ	-1.38 ± 2.7
QYSCGSYYLERSGNVSRRKS	-0.084 ± 1.6
QYSCN	1.72 ± 0.46
QYSVHINNVTLRPKHRYVQ	-0.065 ± 0.29
QYTYFMSGDWSNGRVSLVKK	2.96 ± 0.099
QYVPNETVDI	1.4 ± 0.25
RACLQFRQLVGDRLG	1.52 ± 0.73
RAGTFTVSTQGPS	0.268 ± 0.28
RALAVSRMRAYPSLRGEYLN	0.076 ± 1.2
RALRGSECGMNRRPLRGCVK	-0.167 ± 0.22
RAMKWLYVSNNDNMRKHFFS	-0.712 ± 0.42
RARQNAFREW	-0.301 ± 0.35
RASILCA	0.268 ± 0.66
RASSFAEIPVVSCDGGLVKW	-0.129 ± 0.41
RASTNLRSEIDVNNRGWLRW	1.32 ± 0.42
RCELMNIEFWVKHYGSSSGF	1.64 ± 0.18
RCGCERTYSFR	-0.027 ± 0.72
RCGRAINGVQCVHWFVMSEG	0.429 ± 0.58
RCLIDCD	0.157 ± 0.52
RCSLPLWFQYYGAMTVHGTV	0.61 ± 0.35
RCVETSFTSGFIVGELLMRM	-0.84 ± 1.3
RCVMFQVRHSNIGRKRDYGI	0.389 ± 1.2

Substance	amyloid nucleation score
RCWRSLPRLLRQFMDSSRTI	-0.27 ± 0.61
RDFYNCS	0.166 ± 0.26
RDMVKLHVHTLHCNDDILGL	-0.896 ± 0.62
RDNCSLNVYFK	2.9 ± 0.14
RDNKLSVAVVMQSYSVGESG	-0.034 ± 0.89
RDPRAMQLKSRLGMWKNQWY	0.91 ± 0.78
RDSGLVGIPLTRTRIVKLST	-0.35 ± 0.56
RDTTTT	0.088 ± 0.33
REDKYHIVVT	-0.275 ± 0.28
REGWLITWRFNSW	inactive
RERIECDWTGLAFGDPKVSV	-0.646 ± 2.1
RESGMTMHVVPQPLDTKTWC	0.612 ± 0.72
RETYLALRRYSDLTFINRTL	1.21 ± 0.29
REYETWLQSQRQNLSDLQK	0.173 ± 0.33
RFAAFIEQGFTTKK	1.87 ± 0.14
RFCRHEMVFVLDLNTYISVP	0.887 ± 0.26
RFCSKRMRVLIFFGLV	-0.165 ± 0.34
RFDSFAMVYDNMWVRCLNVR	-0.303 ± 0.53
RFDYGGIESGVAGCVRVRDY	0.473 ± 0.67
RFFPLVLGSLKYM	0.827 ± 0.7
RFFPWQPCNPHIMPLIFWMP	0.692 ± 0.82
